# Results as given in the supplement of paper PMC9170038.
# System: MS2 coat protein
# Test: apparent KD of MS2 coat protein; higher = weaker reporter binding
# Settings: Eterna round: R107; input ligand: arginine 13.2 mM
# Procedure: (§1)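 RNA-MaP round R107: designed RNA switches with theophylline, tryptophan, arginine or FMN aptamers are transcribed on-chip within common flanks. They are titrated with SNAP-549-labelled MS2 coat protein in RNA-MaP buffer (100 mM Tris pH 7.5, 80 mM KCl, 4 mM MgCl2), without ligand or with the indicated ligand. Median apparent KD per design.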
row,Sequence,apparent KD of MS2 coat protein [nM]
1,AACGUAUACAGAAGGAGCGUGAAUUAUUUUAUUUUUUUAUAAACAUGAGGAUCACCCAUGUCACAGGUAGGUCGCUGUAUUCGUA [JR_ExcArginiB_Sub018],23.8
2,AAUAAUAGGUGAUCCUAACGAGUGGCAUAACGAGGACCGGUACGGCCGCCACUCGAACAUGAGGAUCACCCAUGUAGUCACUCGA [M'-T'-T-MS2-T'' - Design 5],82.9
3,AGCGAUAUGCAUGAUACCAGCUACAUGAGGAUCACCCAUGUGCGUCAGAAAUGACUGUGUAGCCCUUGGCAGCAUAAAGCAUGUA [Exclusion - Theophylline B (Freestyle 10)],32.3

# Same assay, conditions: Eterna round: R107; input ligand: none
row,Sequence,apparent KD of MS2 coat protein [nM]
1,AACGUAUACAGAAGGAGCGUGAAUUAUUUUAUUUUUUUAUAAACAUGAGGAUCACCCAUGUCACAGGUAGGUCGCUGUAUUCGUA [JR_ExcArginiB_Sub018],18.4

# Same assay, conditions: Eterna round: R107; input ligand: theophylline 20 uM
row,Sequence,apparent KD of MS2 coat protein [nM]
1,AACGUAUACAGAAGGAGCGUGAAUUAUUUUAUUUUUUUAUAAACAUGAGGAUCACCCAUGUCACAGGUAGGUCGCUGUAUUCGUA [JR_ExcArginiB_Sub018],40.5
2,AAUAAUAGGUGAUCCUAACGAGUGGCAUAACGAGGACCGGUACGGCCGCCACUCGAACAUGAGGAUCACCCAUGUAGUCACUCGA [M'-T'-T-MS2-T'' - Design 5],280
3,AGCGAUAUGCAUGAUACCAGCUACAUGAGGAUCACCCAUGUGCGUCAGAAAUGACUGUGUAGCCCUUGGCAGCAUAAAGCAUGUA [Exclusion - Theophylline B (Freestyle 10)],50.7

# Same assay, conditions: Eterna round: R107; input ligand: theophylline 2 mM
row,Sequence,apparent KD of MS2 coat protein [nM]
1,AACGUAUACAGAAGGAGCGUGAAUUAUUUUAUUUUUUUAUAAACAUGAGGAUCACCCAUGUCACAGGUAGGUCGCUGUAUUCGUA [JR_ExcArginiB_Sub018],22.8
2,AAUAAUAGGUGAUCCUAACGAGUGGCAUAACGAGGACCGGUACGGCCGCCACUCGAACAUGAGGAUCACCCAUGUAGUCACUCGA [M'-T'-T-MS2-T'' - Design 5],751

# Same assay, conditions: Eterna round: R107; input ligand: tryptophan 2.4 mM
row,Sequence,apparent KD of MS2 coat protein [nM]
1,AACGUAUACAGAAGGAGCGUGAAUUAUUUUAUUUUUUUAUAAACAUGAGGAUCACCCAUGUCACAGGUAGGUCGCUGUAUUCGUA [JR_ExcArginiB_Sub018],19.2
2,AGCGAUAUGCAUGAUACCAGCUACAUGAGGAUCACCCAUGUGCGUCAGAAAUGACUGUGUAGCCCUUGGCAGCAUAAAGCAUGUA [Exclusion - Theophylline B (Freestyle 10)],38.5

# System: K4 kissing-loop RNA reporter;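 note: bound reporter read as fluorescence of individual clusters on recovered sequencing chips by microscopy, with normalized cluster intensities fitted with a binding model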
# Test: apparent KD of K4 kissing-loop reporter; higher = weaker reporter binding
# Settings: Eterna round: R107; input ligand: FMN 200 uM
# Procedure: as §1, with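 “a labelled K4 kissing-loop RNA reporter” for “SNAP-549-labelled MS2 coat protein”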
row,Sequence,apparent KD of K4 kissing-loop reporter [nM]
1,AAAACCAAAAGCGAUACCAGCGCGGAGUGAUGUUCCGAGGAUCGGAGUGAUGUUCCGAAGCGCCCUUGGCAGCGCAAAAGCGCAA [Exclusion Theophylline B GF 7],207
2,ACGCUGGUGAAUAACACUAGCGAAAAUUCGCGAGGACCGGUACGGCCGCCACUCGCUAACUGCGAGUGAUGUUCGAUAAUAAAAU [Mat - Mod of OpenEnded 3 - D8],233
3,UGACUGGACUGAAGGAGCGCUAAAACUCCUAGUGAUGUUGGGAAAUAGAGACAAAGUCUCAAGCAGGUAGGUCGCAGUCUAGUCU [ArgBS 23 #SwitchBubble #StaticStem],166
4,UAAUAAAUUCCAGCGAUAUCGCUCUUCGAAGGAGCGGGCGAAAGUCCAGGUAGGUCGCGGAGAGUGAUGUUCUUUGCGGCGCUGG [whbob_Ex_Arginine_A_2t134],408
5,UAAUCCUAGUGAUAAUAAUCAAGUGGUGGGCGAGGACCGGUACGGCCGCCACUCGAAUAUGCAGUGAUGUUGUAAUCCGGAUAAU [Exclusion - Tryptophan A (Freestyle 6)],667
6,AGGAUCACGUCAGUGAUGUUGACGAGAGAUACCAGAGACGAAAGUCUCCCUUGGCAGCUCAUCGUGAUCCGUGACAAAGGUCACA [Omei KL hio A SS C v4],338
7,AUUCUGUUUUUAAUGUUUAUUGUAUAAUGGCAGGAUAUCGUAGAAGCGAGAAGGGCUUUUAUGCGUUAUGAGUGAUGUUUGUAGG [dhhyfvmullin],364
8,UCUCGGGCCAGUGAUGUUGGCGGCAAGUGGCGAGGACCGGUACGGCCGCCACUCGGCGCAGCAGCGGAGUGAUGUUUCGUGAGUA [Same State Tryptophan A GF 16],297
9,GCCGUAGAUUGAAGGAGCGGUAUGGGCGUUGGCUGAGUGAUGUUCAGGAAAAGUGGCUUCUACCAGGUAGGUCGCAAUCUACGGC,133
10,AAAAUAAACCAGUGAUGUUGGUGUGUAGAUACCAGCGACGAAAGUCGCCCUUGGCAGCUGUGGACGUACAAAAUAAGUACGUCCU [MatMod 23 - Jieux - Same State - Theophylline A],315
11,ACGCGCGCGAGUGAUGUUCGGAGCGGCUGGCAGGAUAUGUAGCAAUGCAGAAGGGUCGUGGCUGCUGGUAGGAAACUACUGGCAG [#2 Exclusion - FMN A Attempt #4 (HarryS)],252
12,AAAUUCUUUUUUUUAUAUAACGAUUCAGAAGGAGCGAGGUAGAACUCAGGUAGGUCGCUGAAUAUAAGACUAGUGAUGUUAGUAA [#01 K4 Arginine A Same State],175
13,UUACUACCCAGUGAUGUUGGGUAGCGGCCACGAGGACCGGUACGGCCGCCACUCGAGGUUCGGGAGUGAUGUUCCUACUAUUUGG [Same state Tryptophan A GF 6],328
14,AGGAUCACGUCAGUGAUGUUGACAAGAGAUACCAGAGACGAAAGUCUCCCUUGGCAGCUCACUGUGAUCCGUGACAAAGGUCACA [Omei KL hio A SS C v1],146
15,GGCGCUGUCUGUGCCGCCCUCCUCGUCCCUCGAGGACCGGUACGGCCGCCACUCGAGUGAUGUUCGGGUAGCCCUCCCUGCCAGC [BDazzled - #22 Exc. Tryptophan A],462
16,UGAUACCAGACUGAUACCAGCAAGUGAUGUUUGUUGAUCUAUGCAGUCAAAGACUGCUCUUGCCCUUGGCAGCAGUCUGGUAUCU [TheoBX 28 #SwitchBubble #StaticStem],762
17,UGAUUGCCAGUGAUGUUGGCAGGGUCUGAAGGAGCGCGUGAAAACGCAGGUAGGUCGCAGUAUGGUGCCAAUUGAUCGAAAGAUC [KL-XArg-A3],226
18,AGACUACCACACUGUCAAUAGACAGUGUACUAGGAUAUGCUGAUAAGCAGAAGGAGUGAUGUUCCAAGGUAGUCAAUAAAAUAAU [FmnAX 13 U28+A66],393

row,Sequence,apparent KD of K4 kissing-loop reporter [nM]
1,GUAGGAUGAGGAGGAGGAUGAAUUACUGAAGGAGCGCAGAGAAAUGCAGGUAGGUCGCGGUAAAGAAGUAUAGUGAUGUUAUAUC [#09 K4 Arginine A Same State],775
2,UCCCGAGUGAUGUUUGGCUGAUGGAGUGAUACCAGUCCCUAGACUGACCCUUGGCAGCACGACUUGUACCAGGCGGAUCACCCUG [theeternabot_exclusion_KL_Theo_A_5],479
3,GGUUUCUGAAGUGAUGUUUCAGGAUGACACAAGGAUAUAUAUGGCGAUAGAAGGUGUGCGUCGCAUGACGAACGACGUCAGCUUC [theeternabot_exclusion_KL_FMN_A_37],94.8
4,AUUUUGGUUUAGAGUGAUGUUCCUUGUAUUCGAGGACCGGUACGGCCGCCACUCGAAUAGAAAAGAAAAGAAAUGUGUGAUGUUU [BDazzled - #5 SS Tryptophan A],772
5,AAUAGGGAUAGUGAUGUUAUCCCUUAUGAUACCAGUGCCAUCGGACACCCUUGGCAGCAUACGGGCAGUGAUGUUGUCCUUGGUG [Exclusion Theophylline A GF 16],106
6,AGUACAACUGCGGCCGCCACUCAACGCAGAUCAAAGAUCUGCAUUCACUCAGUGAUGUUGAGUGAGAGGACCGGGCAGUUGUACA [Omei KL Tryp B SS B v3],855
7,CAUACGCAUGGAGGAUAUGAGAUUACUCAUAUUACCCUGUAACAGGUAUCUCAGUGAUGUUGAGACUCAGAAGGCCAUGUGUAUG [Ex FMN B 22],713
8,UUUUAUAACCGAAGGAGCGCGUGGGCGCAGUGAUGUUGCGCCCGACAUCACUUCAACUUAACGCAGGUAGGUCGCGGUUUUAAUA [Arginine B (Excl) V2],157
9,CAUUCGAAAUGCAGUGAUGUUGCAACUGAUACCAGUAUCGAAAGAUACCCUUGGCAGCGGAAAACCGCUACGUUUUUUUUGAAUG [Ex Theophylline A K4 24],191
10,GCAUCCGAUGCAGGAUAUAGAUGAACGAGUGAUGUUUGGAAUUUAUGUCCAAAGCCUACGAUCAAACUAGAAGGGCAUCGGAUGC,334
11,CCGGGCGGCCGAAGGAGCGGGCGGACCCGAGUGAUGUUCGGGUGGCCCGUGAGGGCCGGUGCCCAGGUAGGUCGCGGAUCCGCCC [#2 Same State - Arginine B Attempt #3 (HarryS)],155
12,ACGCGCGCGAGUGAUGUUCGGAGCGGCUGGCAGGAUAUGUAGCAAUGCAGAAGGGUCGUGGCGCUCCCUCCUGAAGGAGGGAGCG [#2 Exclusion - FMN A Attempt #25 (HarryS)],198
13,GAAAGAAAGAAUGAUACCAGACACCCGAGUGAUGUUCGGAGCAGAGUGAUGUUCUAAUAAGUCCCUUGGCAGCAUAAAAGAAAAG [Same State Theophylline B GF 1],240
14,UAAUUUAUGUCUUUAAUAUAAUUUUCAGAUACCAGUGAUUAUUAACACCCUUGGCAGCUGUAUAGAGUGAUGUUCUUAUGCUUAA [JR_ExcTheophyA_Sub009],213
15,UACAUAUCACUUUUUCUACAAUUAUUUAGUCAGGAUAUCGAUUAAACGAGAAGGGACAUUAUCAAGUGAUGUUUGAUAAUUCAAA [JR_Nu_SSFMNA_Sub028],156
16,AGGUACAAAAGUACCGCUAGAUCCACGGAAGGAGCGCCGGAAACGGCAGGUAGGUCGCCGGGCAGUGAUGUUGCCGGAUCUAGCA [Omei KL Arginine A SS A v4],161
17,GGUAGGGCAGCUGCGGAAACGCAGCAUAUCGAGGAUAUCGGGAAACCGAGAAGGCGAGUAGUGAUGUUACUGGUUUAGCCCUACC,444
